Assay results: US20240301053A1, “COMBINATION THERAPIES WITH VENETOCLAX AND TIM-3 INHIBITORS” (Novartis AG, priority 2019, published 2024)

Biological target: T1, TIM-3/Galectin-9 interaction (Homo sapiens, UniProt Q8TDQ0)
T1 construct: TIM-3 fusion protein (R&D Systems) was coated on a standard MesoScale 96 well plate; purchased R&D Systems
Assay: plate-based (MesoScale) TIM-3/Galectin-9 competition assay
Assay type: binding
Conditions: TIM-3 fusion protein coated at 2 μg/ml; labeled Galectin-9 100 nM; serial dilutions
Procedure: TIM-3 fusion protein (R&D Systems) was coated on a standard MesoScale 96 well plate (Meso Scale Discovery) at 2 μg/ml in PBS (Phosphate Buffered Saline) and incubated for six hours at room temperature. The plate was washed three times with PBST (PBS buffer containing 0.05% Tween-20) and blocked with PBS containing 5% Probumin (Millipore) overnight at 4° C. After incubation, the plate was washed three times with PBST and unlabeled antibody (F38-2E2 (BioLegend); MBG453; MBG453 F(ab′)2; MBG453 F(ab); or control recombinant human Galectin-9 protein) diluted in Assay Diluent (2% Probumin, 0.1% Tween-20, 0.1% Triton X-100 (Sigma) with 10% StabilGuard (SurModics)), was added in serial dilutions to the plate and incubated for one hour on an orbital shaker at room temperature. The plate was then washed three times with PBST, and Galectin-9 labeled with MSD SULFOTag (Meso Scale Discovery) as per manufacturer's instructions, diluted in Assay Diluent to 100 nM, was added to the plate for one hour at room temperature on an orbital shaker. The plate was again washed three times with PBST, and Read Buffer T (1×) was added to the plate. The plate was read on MA600 Imager, and competition was assessed as a measure of the ability of the antibody to block Ga19-SULFOTag signal to TIM-3 receptor.

ability to block Gal9-SULFOTag signal to TIM-3 receptor (interaction between TIM-3 and Galectin-9): did not
B1: control Galectin-9 protein: control recombinant human Galectin-9 protein, unlabeled (protein)
chain: AFSGSQAPYLSPAVPFSGTIQGGLQDGLQITVNGTVLSSSGTRFAVNFQTGFSGNDIAFHFNPRFEDGGYVVCNTRQNGSWGPEERKTHMPFQKGMPFDLCFLVQSSDFKVMVNGILFVQYFHRVPFHRVDTISVNGSVQLSYISFQPPGVWPANPAPITQTVIHTVQSAPGQMFSTPAIPPMMYPHPAYPMPFITTILGGLYPSKSILLSGTVLPSAQRFHINLCSGNHIAFHLNPRFDENAVVRNTQIDNSWGSEERSLPRKMPFVRGQSFSVWILCEAHCLKVAVDGQHLFEYYHRLRNLPTINRLEVGGDIQLTHVQT
